The values that follow come from the supplement of paper PMC9170038.

The test system of data set [1] is MS2 coat protein. The experiment in a line: apparent KD of MS2 coat protein; designed switch direction (-1 OFF switch, 1 ON switch): -1; higher = weaker reporter binding. To be noted: Eterna round: R98. The procedure:
(§1)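 RNA-MaP: designed FMN/MS2 RNA switches (84 nt design region) are transcribed on-chip within common flanks and titrated with SNAP-549-labelled MS2 coat protein (about 1-3000 nM) in 100 mM Tris pH 7.5, 80 mM KCl, 4 mM MgCl2, without or with 200 uM FMN. Median apparent KD per design; activation ratio = KD,OFF / KD,ON.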

Data set [2] has as its system MS2 coat protein. The experiment in a line: apparent KD of MS2 coat protein; designed switch direction (-1 OFF switch, 1 ON switch): 1; higher = weaker reporter binding. The conditions noted are these: Eterna round: R98. How it is done: as §1

“AAAAUAAAGGCAGGAUAUACAUGAAUAAAUAAUAUAAUAUAUAAUAAAACAUGAGGAUCACCCAUGUAGAAGGGCCAAAAUAAA [LRO024_Exclusion NG 2]”: the figures for the “apparent KD of MS2 coat protein” value in data set [1] (input ligand: FMN 200 uM) and in data set [1] (input ligand: none) were 107 nM and 72.3 nM, respectively.

Take “AAUAUAAGAGCUGGAAAUAAACUCACAUGAGGAUCACCCAUGUAGGAUAUCAGCACGAUAAGUGCUGAGAAGGACAUCCAGCUC [Denovo 56]”: the “apparent KD of MS2 coat protein” value was 14.7 nM in data set [1] (input ligand: FMN 200 uM) and 16.4 nM in data set [1] (input ligand: none).

On to “AAUAUGAGCUGGAAUAUAAAACUCACAUGAGGAUCACCCAUGUAGGAUAUCAGCACGAUAAGUGCUGAGAAGGACAACCAGCUC [Denovo 31]”, for which the figures for the “apparent KD of MS2 coat protein” value in data set [1] (input ligand: FMN 200 uM) and in data set [1] (input ligand: none) were 15.1 nM and 16.8 nM, respectively.

With “ACAUACAUUCGAGGAUAUCGGUGAUUAAUUCUACGAGAAGGCGAUUUAAGAUAUAAUAUUUUAGACAUGAGGAUCACCCAUGUA [JR_SSNG1_Sub036]”, the results for the “apparent KD of MS2 coat protein” value in data set [2] (input ligand: FMN 200 uM) and in data set [2] (input ligand: none) were 22.9 nM and 28.3 nM, respectively.

Consider “CCGAUGCAAAUAAAACAUGAGGAUCACCCAUGUGAGUCUCAUGAGGAUAUGCAGGUCAAAGACUUGCAGAAGGCAUGGCGUCGG [Eli sng3 2.08]”, for which the “apparent KD of MS2 coat protein” value was 135 nM in data set [2] (input ligand: FMN 200 uM) and 1370 nM in data set [2] (input ligand: none).

As to “CCGAUUAGCACAGGAUAUGGGAGUUCGUAGCUCCCAGAAGGGUGAGCCAAUACAUGAGGAUCACCCAUGUGCGGUAGGUCAGGA [Energe]”, the “apparent KD of MS2 coat protein” value in data set [2] (input ligand: FMN 200 uM) amounted to 56 nM; in data set [2] (input ligand: none), 57.1 nM.

As for “CCUGUCGCAUGAGGAUAUGGUCAGCUUUGCUGACCAGAAGGCAUGUCAAUAGACAUGAGGAUCACCCAUGUAGUAAAGACAGGA [Mat - Same State NG 1 - JL Mod - D36]”, the entries for the “apparent KD of MS2 coat protein” value in data set [2] (input ligand: FMN 200 uM) and in data set [2] (input ligand: none) were 36.2 nM and 395 nM, respectively.

In the case of “GACUUGGCUACAUGAGGAUCACCCAUGUUUGACUGGAUCGAUUAGGAUAUAGUGAUUUGCAACAAUUAGAAGGGAUAUUUACGG [byesamestateseeyounextround#3]”, the “apparent KD of MS2 coat protein” value in data set [2] (input ligand: FMN 200 uM) was determined as 31.3 nM; in data set [2] (input ligand: none), 32.9 nM.

On to “GAUCCGAGCACAGGAUAUGUUAGAGAGGGUGAGACAGAAGGGUGCUCCGGUAAGGCCAAGCACAUGAGGAUCACCCAUGUACAU [Orbezaen]”, for which the figures for the “apparent KD of MS2 coat protein” value in data set [2] (input ligand: FMN 200 uM) and in data set [2] (input ligand: none) were 64.9 nM and 29.7 nM, respectively.

With “GCACUGGAUGUAGGAUAUCAGGACGAUAAGUCCUGAGAAGGACAUGAGGAUCACCCAUGUGCCAAAACCAGUGCAUAUAAUAUA [Denovo Exng1 33]”, the figures for the “apparent KD of MS2 coat protein” value in data set [1] (input ligand: FMN 200 uM) and in data set [1] (input ligand: none) were 16.9 nM and 12.5 nM, respectively.

Turning to “GCUUGCGACGCAGGAUAUGGGUGCCUGCACACGAGGAUCACCCGUGUAGAGGAAGCGAAAAGCUCUCAGAAGGGCGUCGCAGGC [United States 5 - Jieux - Same State NG 2]”, the figures for the “apparent KD of MS2 coat protein” value in data set [2] (input ligand: FMN 200 uM) and in data set [2] (input ligand: none) were 20.7 nM and 45.3 nM, respectively.

In the case of “GGAUCCAUCACAGGAUAUGCUGGACUUUGUCCAGCAGAAGGGUGAACAUGAGGAUCACCCAUGUAUUGGAUCCAUAUAUUUAAU [Denovo 35]”, the entries for the “apparent KD of MS2 coat protein” value in data set [2] (input ligand: FMN 200 uM) and in data set [2] (input ligand: none) were 94.1 nM and 1290 nM, respectively.

For the sequence “GGGUCGCUUGGAGGAUAUCCAACUAUCCUAGUUGGAGAAGGCCAAGCUACAGAGCUAAGCUUGGAAGUCACUUCGGACCCACAC [pwkr ssNG1 F9.4.5]”, the entries for the “apparent KD of MS2 coat protein” value in data set [2] (input ligand: FMN 200 uM) and in data set [2] (input ligand: none) were 47 nM and 15.6 nM, respectively.

Regarding “GGUCCAUCAUGAGGAUAUGGCACCUUAUUGGUGCCAGAAGGCAUGUGUAUUCACAUGAGGAUCACCCAUGUAAUAAAUUGGACC [Pyrimidine booster 8]”, the figures for the “apparent KD of MS2 coat protein” value in data set [2] (input ligand: FMN 200 uM) and in data set [2] (input ligand: none) were 21.5 nM and 53.2 nM, respectively.

As to “GGUUGACGACAAUUACAUGAGGAUCACCCAUGUUGUGGGAUGCAGGAUAUGUGGUAUAUUAUUUAACAGAAGGGCAAUAAUUUU [JR_SSNG3_Sub063]”, the “apparent KD of MS2 coat protein” value came to 54.7 nM in data set [2] (input ligand: FMN 200 uM) and 32.3 nM in data set [2] (input ligand: none).

As for “GUUGCUUUCCGAGGAUAUUCCGGGCGUGGCUAUACAUGAGGAUCACCCAUGUGGCGGAAGCCUAGGGAGAAGGCGGGCUGCUUC [salish99_SSNG2_r2_230]”, the “apparent KD of MS2 coat protein” value in data set [2] (input ligand: FMN 200 uM) came out at 16.3 nM; in data set [2] (input ligand: none), 17.1 nM.

As for “UAGAUAUGGUGAGGAUAUGCAGAGGAUCACCCUGUAGAAGGCAUCAGGGUAGAAGGUGCAAGGAUCACCUGUAAGGAUAUAUCC [pwkr2 ssNG1 DX.29]”, the “apparent KD of MS2 coat protein” value is 917 nM in data set [2] (input ligand: FMN 200 uM) and 1050 nM in data set [2] (input ligand: none).

As to “UCAUACAUGAGGAUCACCCAUGACAUGAGGAUCACCCAUGUGCAGGAUAUACGUGAUAUAAUAUAGUAGAAGGGCAGACCAUAA [LRO005_Exclusion NG 3]”, the “apparent KD of MS2 coat protein” value stood at 59.1 nM in data set [1] (input ligand: FMN 200 uM) and 40.6 nM in data set [1] (input ligand: none).

As for “UCUCUGGAAUACAUGAGGAUCACCCAUGUGUAAACAUUUACACAGGAUAUCGACGUCUGAGACGACGAGAAGGGUGGGCAGCAA [Rexele]”, the “apparent KD of MS2 coat protein” value in data set [2] (input ligand: FMN 200 uM) came out at 1000 nM; in data set [2] (input ligand: none), 252 nM.

“UGAUCGCUUGGAGGAUAUCCAACUAUCCUAGUUGGAGAAGGCCAAGCUACAGAGCUAAGCUUGGAAGUCACUUCGAAUCAACAC [pwkr Chip 1 Control 70 ssNG1 F9.4]”: the “apparent KD of MS2 coat protein” value in data set [2] (input ligand: FMN 200 uM) was found to be 64.8 nM; in data set [2] (input ligand: none), 53.6 nM.

Consider “UGUUGUUACGCAGGAUAUUGCCAACAGGCGGUAGGAUAUCCGAAAGGAGAAGGACCGCCAACAGGCGAGAAGGGCGGGUUAACA [pwkr exNG2 2xF7 2FMN.10.1]”, for which the “apparent KD of MS2 coat protein” value was found to be 37 nM in data set [1] (input ligand: FMN 200 uM) and 35.2 nM in data set [1] (input ligand: none).
